Data as given in patent US20120321554A1 (MODIQUEST B V, published 2012).
Where no end group is shown, it is not given here.

Key:
[1] = target: T1, Bovine serum albumin (bovine, UniProt P02769 25-607); test: phage ELISA, anti-M13 detection
T1 construct: Control coat in ELISA; also called BSA

[2] = target: mouse plexin D1 (on vessels in mouse tissue) (mouse) (UniProt Q3UH93); test: cell-based or functional assay
[3] = target: T1, Bovine serum albumin; test: ELISA with soluble sdab, detection via VSV-G-tag
[4] = target: T2, PLXND1-peptide-KLH conjugate (human, also: conjugated to KLH, attachment site not given here); test: SPR, Biacore 2000; peptide-KLH conjugate on CM5 chip, sdab in solution, BSA surface subtracted, 1:1 Langmuir model
T2 construct: Coupled to a CM5 chip (27 ug/ml in Na-Acetate pH 4.0) for the Biacore measurements; also called KLH-conjugated peptide
T2 peptide: ALEIQRRFPSPTPTNC-NH2

[5] = target: T3, human plexin D1 (in sections of human tumors) (human, UniProt Q9Y4D7 47-1925); test: immunohistochemistry on human tumor tissue
T3 construct: whole, on cells; Endogenous protein on tumor cells and vessels in tissue sections (immunohistochemistry); also called PLXND1
T3 sequence (Q9Y4D7 47-1925): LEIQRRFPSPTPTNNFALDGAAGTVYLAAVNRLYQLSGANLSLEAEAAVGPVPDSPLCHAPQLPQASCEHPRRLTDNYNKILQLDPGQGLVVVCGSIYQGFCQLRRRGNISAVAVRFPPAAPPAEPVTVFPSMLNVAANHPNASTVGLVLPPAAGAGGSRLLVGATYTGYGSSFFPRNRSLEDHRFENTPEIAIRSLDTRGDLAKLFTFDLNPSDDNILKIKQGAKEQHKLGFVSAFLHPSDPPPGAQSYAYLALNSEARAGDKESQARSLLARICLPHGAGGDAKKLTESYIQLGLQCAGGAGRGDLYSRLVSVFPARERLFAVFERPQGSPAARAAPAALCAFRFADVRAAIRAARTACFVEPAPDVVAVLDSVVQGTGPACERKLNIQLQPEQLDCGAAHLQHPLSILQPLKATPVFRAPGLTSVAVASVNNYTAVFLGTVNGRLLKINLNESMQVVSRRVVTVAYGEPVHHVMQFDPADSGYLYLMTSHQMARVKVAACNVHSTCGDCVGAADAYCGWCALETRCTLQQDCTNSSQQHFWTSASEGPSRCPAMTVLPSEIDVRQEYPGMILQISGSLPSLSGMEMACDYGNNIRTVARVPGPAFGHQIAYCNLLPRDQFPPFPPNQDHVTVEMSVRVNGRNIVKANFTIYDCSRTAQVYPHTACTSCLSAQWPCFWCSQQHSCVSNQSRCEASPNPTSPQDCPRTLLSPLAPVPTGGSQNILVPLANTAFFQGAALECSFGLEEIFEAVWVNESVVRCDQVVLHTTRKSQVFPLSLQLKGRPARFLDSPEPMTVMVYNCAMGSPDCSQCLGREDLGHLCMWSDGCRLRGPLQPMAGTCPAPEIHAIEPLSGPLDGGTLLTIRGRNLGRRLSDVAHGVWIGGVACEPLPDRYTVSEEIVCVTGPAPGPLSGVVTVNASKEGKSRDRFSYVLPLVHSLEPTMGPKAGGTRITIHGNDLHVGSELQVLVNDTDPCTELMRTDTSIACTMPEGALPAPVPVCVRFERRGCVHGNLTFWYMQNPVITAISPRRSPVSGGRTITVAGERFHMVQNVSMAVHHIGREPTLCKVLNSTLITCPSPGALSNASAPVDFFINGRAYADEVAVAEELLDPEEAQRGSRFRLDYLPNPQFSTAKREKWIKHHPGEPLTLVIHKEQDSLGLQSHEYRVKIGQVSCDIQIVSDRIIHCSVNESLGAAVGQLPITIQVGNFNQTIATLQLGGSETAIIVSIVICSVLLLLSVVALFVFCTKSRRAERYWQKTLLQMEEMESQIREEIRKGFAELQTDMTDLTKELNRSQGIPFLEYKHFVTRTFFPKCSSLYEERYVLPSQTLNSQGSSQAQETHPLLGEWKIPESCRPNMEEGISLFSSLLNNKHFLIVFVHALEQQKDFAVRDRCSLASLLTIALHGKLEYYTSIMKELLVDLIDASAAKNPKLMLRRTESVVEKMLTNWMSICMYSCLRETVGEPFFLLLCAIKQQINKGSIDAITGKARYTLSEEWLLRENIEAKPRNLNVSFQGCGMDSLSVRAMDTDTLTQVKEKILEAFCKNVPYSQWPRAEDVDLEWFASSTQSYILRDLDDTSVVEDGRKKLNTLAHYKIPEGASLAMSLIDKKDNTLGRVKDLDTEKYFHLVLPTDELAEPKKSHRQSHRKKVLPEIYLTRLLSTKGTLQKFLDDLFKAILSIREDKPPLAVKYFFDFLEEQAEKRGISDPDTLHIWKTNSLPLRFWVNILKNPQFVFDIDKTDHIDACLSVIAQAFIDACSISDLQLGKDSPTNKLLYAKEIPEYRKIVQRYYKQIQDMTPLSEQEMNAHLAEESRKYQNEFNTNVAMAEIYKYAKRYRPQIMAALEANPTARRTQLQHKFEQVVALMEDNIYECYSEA

T1 sequence (P02769 25-607 limits assumed): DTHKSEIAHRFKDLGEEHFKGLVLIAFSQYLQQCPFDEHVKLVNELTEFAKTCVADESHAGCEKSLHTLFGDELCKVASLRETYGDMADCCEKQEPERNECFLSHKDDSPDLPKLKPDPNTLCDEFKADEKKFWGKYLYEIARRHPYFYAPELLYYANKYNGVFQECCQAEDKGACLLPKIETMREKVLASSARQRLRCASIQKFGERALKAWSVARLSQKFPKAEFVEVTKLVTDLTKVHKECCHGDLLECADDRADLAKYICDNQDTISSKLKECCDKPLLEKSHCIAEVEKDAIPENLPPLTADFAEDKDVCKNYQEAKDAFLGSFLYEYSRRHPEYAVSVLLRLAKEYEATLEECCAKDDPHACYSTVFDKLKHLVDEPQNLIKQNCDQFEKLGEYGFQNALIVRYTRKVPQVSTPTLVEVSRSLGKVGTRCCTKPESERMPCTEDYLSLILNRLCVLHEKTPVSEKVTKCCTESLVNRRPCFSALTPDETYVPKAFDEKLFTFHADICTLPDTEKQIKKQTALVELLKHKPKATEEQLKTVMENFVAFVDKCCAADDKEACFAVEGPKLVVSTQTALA
Chain of mouse plexin D1 (on vessels in mouse tissue) (mouse) (Q3UH93 49-1925): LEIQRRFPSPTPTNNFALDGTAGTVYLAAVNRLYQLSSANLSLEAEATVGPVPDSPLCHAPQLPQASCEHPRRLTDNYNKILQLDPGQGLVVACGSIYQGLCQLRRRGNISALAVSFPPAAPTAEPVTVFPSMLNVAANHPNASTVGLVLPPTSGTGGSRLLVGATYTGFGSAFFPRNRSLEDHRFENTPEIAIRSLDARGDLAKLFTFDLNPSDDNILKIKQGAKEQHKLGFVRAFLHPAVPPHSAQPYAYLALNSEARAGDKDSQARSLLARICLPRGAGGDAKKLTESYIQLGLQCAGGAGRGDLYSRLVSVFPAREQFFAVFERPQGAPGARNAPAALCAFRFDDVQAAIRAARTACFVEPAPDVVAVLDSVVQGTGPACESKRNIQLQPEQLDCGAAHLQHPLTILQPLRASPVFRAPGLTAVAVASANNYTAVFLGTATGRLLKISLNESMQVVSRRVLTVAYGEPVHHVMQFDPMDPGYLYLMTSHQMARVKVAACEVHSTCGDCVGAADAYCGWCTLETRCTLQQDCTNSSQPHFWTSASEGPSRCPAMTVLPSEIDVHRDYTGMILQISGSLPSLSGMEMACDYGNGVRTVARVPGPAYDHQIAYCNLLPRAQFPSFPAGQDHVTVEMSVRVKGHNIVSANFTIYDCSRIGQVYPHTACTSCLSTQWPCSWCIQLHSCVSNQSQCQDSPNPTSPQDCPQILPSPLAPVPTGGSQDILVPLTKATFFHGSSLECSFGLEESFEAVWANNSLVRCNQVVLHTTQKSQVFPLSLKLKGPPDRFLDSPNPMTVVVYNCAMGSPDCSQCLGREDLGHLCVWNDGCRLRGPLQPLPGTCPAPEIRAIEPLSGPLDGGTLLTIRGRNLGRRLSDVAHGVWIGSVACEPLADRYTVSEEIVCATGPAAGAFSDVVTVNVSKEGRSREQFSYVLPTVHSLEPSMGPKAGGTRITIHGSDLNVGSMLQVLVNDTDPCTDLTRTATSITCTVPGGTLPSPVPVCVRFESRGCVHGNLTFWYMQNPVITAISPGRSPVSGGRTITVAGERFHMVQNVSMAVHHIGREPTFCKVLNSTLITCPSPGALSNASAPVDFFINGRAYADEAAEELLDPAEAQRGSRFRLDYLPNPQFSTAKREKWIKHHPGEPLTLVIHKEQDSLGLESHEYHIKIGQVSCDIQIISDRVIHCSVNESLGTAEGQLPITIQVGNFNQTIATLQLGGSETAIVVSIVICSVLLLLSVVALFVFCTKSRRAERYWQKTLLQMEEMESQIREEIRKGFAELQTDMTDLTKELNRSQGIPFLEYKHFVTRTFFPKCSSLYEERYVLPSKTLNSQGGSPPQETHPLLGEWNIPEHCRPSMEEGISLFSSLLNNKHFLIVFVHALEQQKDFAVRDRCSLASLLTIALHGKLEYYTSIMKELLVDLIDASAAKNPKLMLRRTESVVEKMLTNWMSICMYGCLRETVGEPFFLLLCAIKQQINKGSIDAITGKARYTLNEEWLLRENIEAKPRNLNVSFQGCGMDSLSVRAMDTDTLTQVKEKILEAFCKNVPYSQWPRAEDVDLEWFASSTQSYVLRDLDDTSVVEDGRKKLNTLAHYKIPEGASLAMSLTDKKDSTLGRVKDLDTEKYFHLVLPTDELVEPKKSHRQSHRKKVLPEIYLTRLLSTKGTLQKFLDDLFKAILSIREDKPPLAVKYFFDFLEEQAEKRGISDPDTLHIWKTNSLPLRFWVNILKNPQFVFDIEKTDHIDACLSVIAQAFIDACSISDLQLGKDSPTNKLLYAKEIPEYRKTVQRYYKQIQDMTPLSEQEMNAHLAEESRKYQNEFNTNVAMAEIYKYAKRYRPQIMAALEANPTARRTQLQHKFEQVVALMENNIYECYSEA

B1: M13 phage displaying single domain antibody F8 (VHH)
VHH: QVQLQESGGGLVQAGDSLRLSCAASGRTFSTLIMAWFRQAPGKEREFVAAISRGGGSTSYADSVKGRFTISRDNSKNAVYLQMNSLKPDDTAVYYCNARYGSRIYWGQGTQVTVSS
notes: Whole M13 phage particle carrying F8; detected with anti-M13 antibody; also called phage F8; M13 phage associated antibody F8; not shown: M13 phage coat protein to which the sdab is fused (phagemid pHENIXHis8VSV); not described
- binding result [1]: no binding (tested: 10^10 phages)
- quantification of phage homing: colony-forming phages eluted from laser-dissected tumor tissue against unaffected brain [2]: 20 fold

B2: Llama single domain antibody F8 (soluble sdab, C-terminal 8*His-tag and VSV-G-tag) (VHH)
VHH: QVQLQESGGGLVQAGDSLRLSCAASGRTFSTLIMAWFRQAPGKEREFVAAISRGGGSTSYADSVKGRFTISRDNSKNAVYLQMNSLKPDDTAVYYCNARYGSRIYWGQGTQVTVSS
notes: also called sdab F8; V-H single domain antibody F8
- binding result [3]: no binding
- Kd [4]: 35 nM

B3: Llama single domain antibody A12 (soluble sdab, C-terminal 8*His-tag and VSV-G-tag) (VHH)
VHH: QVQLQESGGGLVQPGGSLRLSCAASGSSISINNWGWYRQAPGKQRERVAAISGGGKTVYADSVKGRFTISRDNAKNTVYLQMNSLKPEDTAVYYCRAVRKSTGWLRGLDVWGQGTQVTVSA
notes: also called sdab A12; V-H single domain antibody A12
- binding result [3]: no binding
- Kd [4]: 21 nM
- binding result [5]: binds

B4: M13 phage displaying single domain antibody A12 (VHH)
VHH: QVQLQESGGGLVQPGGSLRLSCAASGSSISINNWGWYRQAPGKQRERVAAISGGGKTVYADSVKGRFTISRDNAKNTVYLQMNSLKPEDTAVYYCRAVRKSTGWLRGLDVWGQGTQVTVSA
notes: Whole M13 phage particle carrying A12; detected with anti-M13 antibody; also called phage A12; M13 phage associated antibody A12; not shown: M13 phage coat protein to which the sdab is fused (phagemid pHENIXHis8VSV); not described
- binding result [1]: no binding (tested: 10^10 phages)
